In US20030192074A1 one finds percent of GUS stained wheat (CERCO) cells with an attached spore that contain haustorium, isolate A6, percent of GFP-Mlo expressing cells with an attached spore that support a fungal colony (3-component single-cell assay, mlo-5 barley leaves, isolate A6) and percent of GFP-Mlo expressing cells with an attached spore that support a fungal colony (3-component single-cell assay, mlo-5 barley leaves, isolate K1) data, which are given here for two substances.

Assay [1] has as its target AvrMla6 avirulence gene product of Erysiphe graminis f. sp. hordei (Erysiphe (=Blumeria) graminis f sp hordei).
For assay [2] the target is unchanged. The source holds these as a separate data set.
Assay [3] addresses AvrMla1 avirulence gene product of Erysiphe graminis f. sp. hordei (Erysiphe (=Blumeria) graminis f sp hordei).

Substance “MLA1 polypeptide (product of R gene A, Mla1, of barley line CI-16137, AlgR Mla1)” showed a percent of GUS stained wheat (CERCO) cells with an attached spore that contain haustorium, isolate A6 in assay [1] of 23.9%. The substance also registered a percent of GFP-Mlo expressing cells with an attached spore that support a fungal colony (3-component single-cell assay, mlo-5 barley leaves, isolate A6) in assay [2] of 47.1%. In assay [3], this substance returned a percent of GFP-Mlo expressing cells with an attached spore that support a fungal colony (3-component single-cell assay, mlo-5 barley leaves, isolate K1) of 9.3%.
The matching figures for “MLA6 polypeptide (product of Mla6 of barley line C.I. 16151)”: 9.2%, 9.4% and 46.5%.
